In US7432061B2, “Assays for measuring matrix metalloproteinase activities” (BioZyme, Inc., priority 2002, dated 2008):

How the values were obtained:
gelatinase A = target: T1, gelatinase A (Homo sapiens, UniProt P08253); assay: Inhibition with type II collagen, FlSub3 cleavage; type: biochemical; details: for Improvement In Selectivity (Gel-A v Col-3): 44 ug/ml Type II Collagen vs no Type II Collagen, FlSb3; for Average Percent Inhibition from 1.1 to 6.6 Hours / Average Percent Inhibition: GELA(.025 nM)
T1 sequence (P08253 110-660): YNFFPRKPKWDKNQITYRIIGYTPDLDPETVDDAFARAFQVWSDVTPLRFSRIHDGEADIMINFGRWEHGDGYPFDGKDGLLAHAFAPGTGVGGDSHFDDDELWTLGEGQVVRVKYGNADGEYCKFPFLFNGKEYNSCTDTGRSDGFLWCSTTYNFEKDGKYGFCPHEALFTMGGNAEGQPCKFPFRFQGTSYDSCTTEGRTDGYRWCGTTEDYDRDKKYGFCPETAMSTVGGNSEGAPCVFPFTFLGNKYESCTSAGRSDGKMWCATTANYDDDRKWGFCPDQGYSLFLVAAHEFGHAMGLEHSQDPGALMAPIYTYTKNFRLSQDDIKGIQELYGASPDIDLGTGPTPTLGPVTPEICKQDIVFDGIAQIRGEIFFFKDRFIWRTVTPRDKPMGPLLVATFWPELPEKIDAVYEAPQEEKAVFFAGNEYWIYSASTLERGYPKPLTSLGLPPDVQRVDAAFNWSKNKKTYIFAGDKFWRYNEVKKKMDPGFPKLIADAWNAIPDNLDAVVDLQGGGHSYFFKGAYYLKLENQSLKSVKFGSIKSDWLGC
Protocol: (§1) In a 96 well plate, collagenase 3 (0.013 nM), collagenase 1 (1.25 nM), stromelysin 1 (0.8 nM), gelatinase A (0.025 nM), or gelatinase B (0.008 nM) were reacted with 20 uM FlSub3 in standard assay buffer in the presence of varying concentrations of bovine type II collagen (0.18-44 ug/ml). The type II collagen, a 1 mg/ml stock in 0.5M acetic acid, was transferred into assay buffer by passing the material through a biospin P6 column from Amersham. The reaction was initiated by addition of substrate to enzyme containing either buffer or an appropriate amount of type II collagen. Data points were taken every 15 min over a period of 15 hours using an excitation and emission wavelength of 350 and 485 nm respectively. The usable data (1-6 hours), was taken and the percent inhibition by type II collagen was calculated for each enzyme and plotted as a function of inhibitor concentration and time in the assay. It should be noted that the percent inhibition varies with time as the bovine substrate is consumed during the reaction course.

collagenase 1 = target: T2, collagenase 1 (Homo sapiens, UniProt P03956); assay: Inhibition with type II collagen, FlSub3 cleavage; type: biochemical; details: for Improvement In Selectivity (Col-1 v Col-3): 44 ug/ml Type II Collagen vs no Type II Collagen, FlSb3; for Average Percent Inhibition from 1.1 to 6.6 Hours / Average Percent Inhibition: COL1(1.25 nM)
T2 sequence (P03956 100-469): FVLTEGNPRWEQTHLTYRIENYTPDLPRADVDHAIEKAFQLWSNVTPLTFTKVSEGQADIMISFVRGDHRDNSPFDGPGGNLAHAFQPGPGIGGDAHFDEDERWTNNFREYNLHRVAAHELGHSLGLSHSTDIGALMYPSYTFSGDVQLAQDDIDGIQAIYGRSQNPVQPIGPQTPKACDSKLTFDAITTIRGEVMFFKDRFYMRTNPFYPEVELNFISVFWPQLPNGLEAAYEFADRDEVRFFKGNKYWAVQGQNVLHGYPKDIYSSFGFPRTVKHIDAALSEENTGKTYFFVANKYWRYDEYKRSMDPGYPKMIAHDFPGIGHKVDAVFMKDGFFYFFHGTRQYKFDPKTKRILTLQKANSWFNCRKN
Protocol: as §1

[1] = TypeIICOL(1.6 ug/ul), FISb3, hour 0.10 to 1.10
[2] = TypeIICOL(1.6 ug/ul), FISb3, hour 1.10 to 2.10
[3] = TypeIICOL(1.6 ug/ul), FISb3, hour 1.10 to 6.60
[4] = TypeIICOL(1.6 ug/ul), FISb3, hour 2.10 to 3.10
[5] = TypeIICOL(1.6 ug/ul), FISb3, hour 3.10 to 4.10
[6] = TypeIICOL(1.6 ug/ul), FISb3, hour 4.10 to 5.10
[7] = TypeIICOL(1.6 ug/ul), FISb3, hour 5.10 to 6.10
[8] = TypeIICOL(4.9 ug/ul), FISb3, hour 0.10 to 1.10
[9] = TypeIICOL(4.9 ug/ul), FISb3, hour 1.10 to 2.10
[10] = TypeIICOL(4.9 ug/ul), FISb3, hour 1.10 to 6.60
[11] = TypeIICOL(4.9 ug/ul), FISb3, hour 2.10 to 3.10
[12] = TypeIICOL(4.9 ug/ul), FISb3, hour 3.10 to 4.10
[13] = TypeIICOL(4.9 ug/ul), FISb3, hour 4.10 to 5.10
[14] = TypeIICOL(4.9 ug/ul), FISb3, hour 5.10 to 6.10
[15] = TypeIICOL(15 ug/ul), FISb3, hour 0.10 to 1.10
[16] = TypeIICOL(15 ug/ul), FISb3, hour 1.10 to 2.10
[17] = TypeIICOL(15 ug/ul), FISb3, hour 1.10 to 6.60
[18] = TypeIICOL(15 ug/ul), FISb3, hour 2.10 to 3.10
[19] = TypeIICOL(15 ug/ul), FISb3, hour 3.10 to 4.10
[20] = TypeIICOL(15 ug/ul), FISb3, hour 4.10 to 5.10
[21] = TypeIICOL(15 ug/ul), FISb3, hour 5.10 to 6.10
[22] = TypeIICOL(44 ug/ul), FISb3, hour 0.10 to 1.10
[23] = TypeIICOL(44 ug/ul), FISb3, hour 1.10 to 2.10
[24] = TypeIICOL(44 ug/ul), FISb3, hour 1.10 to 6.60
[25] = TypeIICOL(44 ug/ul), FISb3, hour 2.10 to 3.10
[26] = TypeIICOL(44 ug/ul), FISb3, hour 3.10 to 4.10
[27] = TypeIICOL(44 ug/ul), FISb3, hour 4.10 to 5.10
[28] = TypeIICOL(44 ug/ul), FISb3, hour 5.10 to 6.10
[29] = TypeIICOL(.18 ug/ul), FISb3, hour 0.10 to 1.10
[30] = TypeIICOL(.18 ug/ul), FISb3, hour 1.10 to 2.10
[31] = TypeIICOL(.18 ug/ul), FISb3, hour 1.10 to 6.60
[32] = TypeIICOL(.18 ug/ul), FISb3, hour 2.10 to 3.10
[33] = TypeIICOL(.18 ug/ul), FISb3, hour 3.10 to 4.10
[34] = TypeIICOL(.18 ug/ul), FISb3, hour 4.10 to 5.10
[35] = TypeIICOL(.18 ug/ul), FISb3, hour 5.10 to 6.10
[36] = TypeIICOL(.55 ug/ul), FISb3, hour 0.10 to 1.10
[37] = TypeIICOL(.55 ug/ul), FISb3, hour 1.10 to 2.10
[38] = TypeIICOL(.55 ug/ul), FISb3, hour 1.10 to 6.60
[39] = TypeIICOL(.55 ug/ul), FISb3, hour 2.10 to 3.10
[40] = TypeIICOL(.55 ug/ul), FISb3, hour 3.10 to 4.10
[41] = TypeIICOL(.55 ug/ul), FISb3, hour 4.10 to 5.10
[42] = TypeIICOL(.55 ug/ul), FISb3, hour 5.10 to 6.10

Type II Collagen: bovine type II collagen, full length MMP substrate used as inhibitor of gelatinases
Improvement In Selectivity (Gel-A v Col-3) (gelatinase A): 80 fold
Improvement In Selectivity (Gel-A v Col-3) (gelatinase A; listed as collagen): approximately 80 fold
Average Percent Inhibition from 1.1 to 6.6 Hours (gelatinase A; Type II Collagen 0.18 ug/ml): 2%
Average Percent Inhibition from 1.1 to 6.6 Hours (gelatinase A; Type II Collagen 0.54 ug/ml): 6%
Average Percent Inhibition from 1.1 to 6.6 Hours (gelatinase A; Type II Collagen 1.63 ug/ml): −52%
Average Percent Inhibition from 1.1 to 6.6 Hours (gelatinase A; Type II Collagen 4.89 ug/ml): 32%
Average Percent Inhibition from 1.1 to 6.6 Hours (gelatinase A; Type II Collagen 14.67 ug/ml): 56%
Average Percent Inhibition from 1.1 to 6.6 Hours (gelatinase A; Type II Collagen 44.00 ug/ml): 83%
Average Percent Inhibition (gelatinase A; [1]): −27%
Average Percent Inhibition (gelatinase A; [2]): 4%
Average Percent Inhibition (gelatinase A; [3]): −52%
Average Percent Inhibition (gelatinase A; [4]): −11%
Average Percent Inhibition (gelatinase A; [5]): −37%
Average Percent Inhibition (gelatinase A; [6]): −68%
Average Percent Inhibition (gelatinase A; [7]): −104%
Average Percent Inhibition (gelatinase A; [8]): 37%
Average Percent Inhibition (gelatinase A; [9]): 43%
Average Percent Inhibition (gelatinase A; [10]): 32%
Average Percent Inhibition (gelatinase A; [11]): 46%
Average Percent Inhibition (gelatinase A; [12]): 37%
Average Percent Inhibition (gelatinase A; [13]): 27%
Average Percent Inhibition (gelatinase A; [14]): 19%
Average Percent Inhibition (gelatinase A; [15]): 56%
Average Percent Inhibition (gelatinase A; [16]): 64%
Average Percent Inhibition (gelatinase A; [17]): 56%
Average Percent Inhibition (gelatinase A; [18]): 70%
Average Percent Inhibition (gelatinase A; [19]): 64%
Average Percent Inhibition (gelatinase A; [20]): 53%
Average Percent Inhibition (gelatinase A; [21]): 41%
Average Percent Inhibition (gelatinase A; [22]): 58%
Average Percent Inhibition (gelatinase A; [23]): 78%
Average Percent Inhibition (gelatinase A; [24]): 83%
Average Percent Inhibition (gelatinase A; [25]): 86%
Average Percent Inhibition (gelatinase A; [26]): 87%
Average Percent Inhibition (gelatinase A; [27]): 85%
Average Percent Inhibition (gelatinase A; [28]): 82%
Average Percent Inhibition (gelatinase A; [29]): 3%
Average Percent Inhibition (gelatinase A; [30]): 9%
Average Percent Inhibition (gelatinase A; [31]): 2%
Average Percent Inhibition (gelatinase A; [32]): 7%
Average Percent Inhibition (gelatinase A; [33]): 3%
Average Percent Inhibition (gelatinase A; [34]): 0%
Average Percent Inhibition (gelatinase A; [35]): −3%
Average Percent Inhibition (gelatinase A; [36]): 2%
Average Percent Inhibition (gelatinase A; [37]): 11%
Average Percent Inhibition (gelatinase A; [38]): 6%
Average Percent Inhibition (gelatinase A; [39]): 12%
Average Percent Inhibition (gelatinase A; [40]): 8%
Average Percent Inhibition (gelatinase A; [41]): 4%
Average Percent Inhibition (gelatinase A; [42]): −1%
inhibition of gelatinase A by type II collagen (gelatinase A; highest concentration (44 ug/ml), six hour time course, FlSub3): Almost complete inhibition
Improvement In Selectivity (Col-1 v Col-3) (collagenase 1): 2.5 fold
Improvement In Selectivity (Col-1 v Col-3) (collagenase 1; listed as collagen): four
Average Percent Inhibition from 1.1 to 6.6 Hours (collagenase 1; Type II Collagen 0.18 ug/ml): 0%
Average Percent Inhibition from 1.1 to 6.6 Hours (collagenase 1; Type II Collagen 0.54 ug/ml): 3%
Average Percent Inhibition from 1.1 to 6.6 Hours (collagenase 1; Type II Collagen 1.63 ug/ml): 0%
Average Percent Inhibition from 1.1 to 6.6 Hours (collagenase 1; Type II Collagen 4.89 ug/ml): 2%
Average Percent Inhibition from 1.1 to 6.6 Hours (collagenase 1; Type II Collagen 14.67 ug/ml): 10%
Average Percent Inhibition from 1.1 to 6.6 Hours (collagenase 1; Type II Collagen 44.00 ug/ml): 15%
Average Percent Inhibition (collagenase 1; [1]): 19%
Average Percent Inhibition (collagenase 1; [2]): 6%
Average Percent Inhibition (collagenase 1; [3]): 0%
Average Percent Inhibition (collagenase 1; [4]): 0%
Average Percent Inhibition (collagenase 1; [5]): −2%
Average Percent Inhibition (collagenase 1; [6]): −3%
Average Percent Inhibition (collagenase 1; [7]): −4%
Average Percent Inhibition (collagenase 1; [8]): 37%
Average Percent Inhibition (collagenase 1; [9]): 13%
Average Percent Inhibition (collagenase 1; [10]): 2%
Average Percent Inhibition (collagenase 1; [11]): 3%
Average Percent Inhibition (collagenase 1; [12]): 0%
Average Percent Inhibition (collagenase 1; [13]): −2%
Average Percent Inhibition (collagenase 1; [14]): −4%
Average Percent Inhibition (collagenase 1; [15]): 44%
Average Percent Inhibition (collagenase 1; [16]): 21%
Average Percent Inhibition (collagenase 1; [17]): 10%
Average Percent Inhibition (collagenase 1; [18]): 12%
Average Percent Inhibition (collagenase 1; [19]): 8%
Average Percent Inhibition (collagenase 1; [20]): 6%
Average Percent Inhibition (collagenase 1; [21]): 4%
Average Percent Inhibition (collagenase 1; [22]): 50%
Average Percent Inhibition (collagenase 1; [23]): 29%
Average Percent Inhibition (collagenase 1; [24]): 15%
Average Percent Inhibition (collagenase 1; [25]): 18%
Average Percent Inhibition (collagenase 1; [26]): 12%
Average Percent Inhibition (collagenase 1; [27]): 9%
Average Percent Inhibition (collagenase 1; [28]): 7%
Average Percent Inhibition (collagenase 1; [29]): 17%
Average Percent Inhibition (collagenase 1; [30]): 3%
Average Percent Inhibition (collagenase 1; [31]): 0%
Average Percent Inhibition (collagenase 1; [32]): 0%
Average Percent Inhibition (collagenase 1; [33]): −1%
Average Percent Inhibition (collagenase 1; [34]): −1%
Average Percent Inhibition (collagenase 1; [35]): −1%
Average Percent Inhibition (collagenase 1; [36]): 15%
Average Percent Inhibition (collagenase 1; [37]): 6%
Average Percent Inhibition (collagenase 1; [38]): 3%
Average Percent Inhibition (collagenase 1; [39]): 3%
Average Percent Inhibition (collagenase 1; [40]): 2%
Average Percent Inhibition (collagenase 1; [41]): 1%
Average Percent Inhibition (collagenase 1; [42]): 1%
inhibition of collagenase 1 by type II collagen (collagenase 1; early timepoints, FlSub3): small but significant inhibition
